# From publication PMC9482650, “Quantitative fragmentomics allow affinity mapping of interactomes” (Nature Communications, 2022)
# Key:
# Experiment in all cases: holdup assay
# Parameters in all cases: key: below the threshold = too weak to quantify, mostly under pKd 3.1 to 4
# ARHGEF12, Q9NZN5-2 = biological target: ARHGEF12, Q9NZN5-2
# DLG1_2, Q12959 = biological target: DLG1_2, Q12959
# DLG1_3, Q12959 = biological target: DLG1_3, Q12959
# DLG4_2, P78352 = biological target: DLG4_2, P78352
# DLG4_3, P78352 = biological target: DLG4_3, P78352
# GRASP, Q7Z6J2 = biological target: GRASP, Q7Z6J2
# GRIP2_6, Q9C0E4 = biological target: GRIP2_6, Q9C0E4
# IL16_1, Q14005 = biological target: IL16_1, Q14005
# IL16_4, Q14005 = biological target: IL16_4, Q14005
# Inadl_1, Q8NI35 = biological target: Inadl_1, Q8NI35
# Inadl_3, Q8NI35 = biological target: Inadl_3, Q8NI35
# LAP2, Q96RT1 = biological target: LAP2, Q96RT1
# LDB3, O75112 = biological target: LDB3, O75112
# LIMK2, P53671 = biological target: LIMK2, P53671
# LRRC7, Q96NW7 = biological target: T1, LRRC7, Q96NW7
# T1 sequence (Q96NW7 1440-1537, limits assumed, looked up): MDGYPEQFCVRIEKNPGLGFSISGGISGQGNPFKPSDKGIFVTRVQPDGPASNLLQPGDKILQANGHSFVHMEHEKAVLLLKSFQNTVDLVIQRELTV
# MAST2, Q6P0Q8 = biological target: MAST2, Q6P0Q8
# MPP6, Q9NZW5 = biological target: T2, MPP6, Q9NZW5
# T2 sequence (Q9NZW5 125-219, limits assumed, looked up): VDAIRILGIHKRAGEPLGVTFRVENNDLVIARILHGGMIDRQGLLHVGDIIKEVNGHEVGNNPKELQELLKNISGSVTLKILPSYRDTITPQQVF
# NHERF3_1, Q5T2W1 = biological target: T3, NHERF3_1, Q5T2W1
# T3 sequence (Q5T2W1 4-100, limits assumed, looked up): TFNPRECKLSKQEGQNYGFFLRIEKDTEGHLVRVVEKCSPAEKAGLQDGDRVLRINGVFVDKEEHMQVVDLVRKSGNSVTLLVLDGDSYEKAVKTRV
# NHERF3_3, Q5T2W1 = biological target: T4, NHERF3_3, Q5T2W1
# T4 sequence (Q5T2W1 238-333, limits assumed, looked up): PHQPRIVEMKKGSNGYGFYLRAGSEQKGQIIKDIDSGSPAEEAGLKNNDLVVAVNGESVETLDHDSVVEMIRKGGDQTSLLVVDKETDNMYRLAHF
# NHERF4_4, Q86UT5 = biological target: NHERF4_4, Q86UT5
# PARD3B_1, Q8TEW8 = biological target: T5, PARD3B_1, Q8TEW8
# T5 sequence (Q8TEW8 196-299, limits assumed, looked up): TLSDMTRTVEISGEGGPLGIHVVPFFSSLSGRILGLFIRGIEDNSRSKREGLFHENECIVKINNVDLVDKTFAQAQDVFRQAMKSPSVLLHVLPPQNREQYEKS
# PARD3_3, Q8TEW0 = biological target: PARD3_3, Q8TEW0
# PICK1, Q9NRD5 = biological target: PICK1, Q9NRD5
# PTPN3, P26045 = biological target: PTPN3, P26045
# SCRIB_1, Q14160 = biological target: SCRIB_1, Q14160
# SCRIB_3, Q14160 = biological target: SCRIB_3, Q14160
# SNTG1, Q9NSN8 = biological target: T6, SNTG1, Q9NSN8
# T6 sequence (Q9NSN8 52-150, limits assumed, looked up): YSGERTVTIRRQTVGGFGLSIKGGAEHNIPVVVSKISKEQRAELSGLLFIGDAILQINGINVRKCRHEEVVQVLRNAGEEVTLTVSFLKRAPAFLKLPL
# SNTG2, Q9NY99 = biological target: T7, SNTG2, Q9NY99
# T7 sequence (Q9NY99 68-166, limits assumed, looked up): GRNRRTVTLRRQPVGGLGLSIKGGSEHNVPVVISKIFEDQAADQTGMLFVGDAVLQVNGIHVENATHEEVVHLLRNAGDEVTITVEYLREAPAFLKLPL
# TIAM2, Q8IVF5 = biological target: T8, TIAM2, Q8IVF5
# T8 sequence (Q8IVF5 885-986, limits assumed, looked up): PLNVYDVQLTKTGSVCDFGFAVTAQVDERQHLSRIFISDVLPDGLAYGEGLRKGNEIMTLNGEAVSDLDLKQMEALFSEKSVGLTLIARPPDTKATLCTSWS
# TJP1_3, Q07157 = biological target: TJP1_3, Q07157
# [1] = modified: phospho on T at position -2 from the C-terminal residue
# [2] = plain residues with an end cap or a label only (N-terminal biotin on a linker: ado-ado)
# GRIP2_6, Q9C0E4, sequence (Q9C0E4 648-740): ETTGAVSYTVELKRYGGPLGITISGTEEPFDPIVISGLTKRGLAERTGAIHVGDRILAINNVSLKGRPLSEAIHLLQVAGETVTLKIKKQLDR
# ARHGEF12, Q9NZN5-2, sequence (Q9NZN5 other isoform, or with tags, fused parts or gaps): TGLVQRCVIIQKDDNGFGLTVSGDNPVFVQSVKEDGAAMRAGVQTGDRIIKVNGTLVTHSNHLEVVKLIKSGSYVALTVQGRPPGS
# MAST2, Q6P0Q8, sequence (Q6P0Q8 1099-1202): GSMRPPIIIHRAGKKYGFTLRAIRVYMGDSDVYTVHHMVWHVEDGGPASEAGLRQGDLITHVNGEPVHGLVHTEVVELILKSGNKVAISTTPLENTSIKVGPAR
# SCRIB_3, Q14160, sequence (Q14160 999-1103): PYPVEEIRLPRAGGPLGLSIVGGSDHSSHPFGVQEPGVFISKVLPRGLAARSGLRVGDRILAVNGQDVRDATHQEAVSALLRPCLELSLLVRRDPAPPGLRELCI
# Inadl_3, Q8NI35, sequence (Q8NI35 359-469): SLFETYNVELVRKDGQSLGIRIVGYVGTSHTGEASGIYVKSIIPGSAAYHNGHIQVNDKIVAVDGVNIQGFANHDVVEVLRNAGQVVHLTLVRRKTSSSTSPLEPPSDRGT
# TJP1_3, Q07157, sequence (Q07157 416-512): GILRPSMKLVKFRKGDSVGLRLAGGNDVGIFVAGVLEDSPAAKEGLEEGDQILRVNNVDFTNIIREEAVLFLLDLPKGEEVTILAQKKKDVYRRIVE
# LAP2, Q96RT1, sequence (Q96RT1 other isoform, or with tags, fused parts or gaps): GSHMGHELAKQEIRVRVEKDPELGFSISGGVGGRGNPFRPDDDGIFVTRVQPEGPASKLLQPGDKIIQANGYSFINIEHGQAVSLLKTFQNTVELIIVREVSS
# IL16_4, Q14005, sequence (Q14005 1229-1329): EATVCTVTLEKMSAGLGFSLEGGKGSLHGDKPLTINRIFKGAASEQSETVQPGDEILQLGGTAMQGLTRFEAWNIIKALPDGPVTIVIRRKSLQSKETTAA
# NHERF4_4, Q86UT5, sequence (Q86UT5 464-550): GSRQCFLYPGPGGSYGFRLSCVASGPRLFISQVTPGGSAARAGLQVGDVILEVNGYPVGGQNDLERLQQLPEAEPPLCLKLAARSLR
# LDB3, O75112, sequence (O75112 1-94): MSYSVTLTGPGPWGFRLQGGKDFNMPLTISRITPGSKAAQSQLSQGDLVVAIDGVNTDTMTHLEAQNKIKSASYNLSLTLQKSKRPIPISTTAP
# DLG4_2, P78352, sequence (P78352 155-259): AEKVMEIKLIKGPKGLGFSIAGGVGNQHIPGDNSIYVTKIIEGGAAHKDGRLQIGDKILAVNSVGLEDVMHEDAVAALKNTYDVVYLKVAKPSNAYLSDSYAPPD
# LIMK2, P53671, sequence (P53671 143-248): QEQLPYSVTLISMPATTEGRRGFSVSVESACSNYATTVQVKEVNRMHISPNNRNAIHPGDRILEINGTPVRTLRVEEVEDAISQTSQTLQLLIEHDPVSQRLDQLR
# DLG4_3, P78352, sequence (P78352 306-403): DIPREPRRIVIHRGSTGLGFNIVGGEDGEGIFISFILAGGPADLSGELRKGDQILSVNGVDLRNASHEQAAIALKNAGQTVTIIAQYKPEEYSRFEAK
# Inadl_1, Q8NI35, sequence (Q8NI35 113-229): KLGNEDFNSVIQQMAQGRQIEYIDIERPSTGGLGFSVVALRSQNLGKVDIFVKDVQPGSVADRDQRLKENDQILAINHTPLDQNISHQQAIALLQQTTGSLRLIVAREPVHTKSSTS
# GRASP, Q7Z6J2, sequence (Q7Z6J2 96-193): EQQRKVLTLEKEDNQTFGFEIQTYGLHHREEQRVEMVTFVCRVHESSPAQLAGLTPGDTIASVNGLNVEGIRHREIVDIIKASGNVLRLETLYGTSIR
# PARD3_3, Q8TEW0, sequence (Q8TEW0 582-685): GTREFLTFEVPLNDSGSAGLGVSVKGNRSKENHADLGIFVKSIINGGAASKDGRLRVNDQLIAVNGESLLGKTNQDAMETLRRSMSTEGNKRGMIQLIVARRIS
# PTPN3, P26045, sequence (P26045 505-587): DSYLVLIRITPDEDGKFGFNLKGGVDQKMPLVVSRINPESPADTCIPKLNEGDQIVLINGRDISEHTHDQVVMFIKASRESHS
# DLG1_2, Q12959, sequence (Q12959 314-412): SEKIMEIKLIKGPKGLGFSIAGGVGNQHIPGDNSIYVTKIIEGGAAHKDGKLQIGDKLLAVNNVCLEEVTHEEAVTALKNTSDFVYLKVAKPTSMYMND
# PICK1, Q9NRD5, sequence (Q9NRD5 17-115): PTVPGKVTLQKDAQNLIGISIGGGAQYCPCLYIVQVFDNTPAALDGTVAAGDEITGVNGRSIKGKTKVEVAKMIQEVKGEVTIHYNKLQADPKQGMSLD
# SCRIB_1, Q14160, sequence (Q14160 718-814): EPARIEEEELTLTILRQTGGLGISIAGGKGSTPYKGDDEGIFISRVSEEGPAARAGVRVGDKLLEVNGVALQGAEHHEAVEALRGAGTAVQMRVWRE
# DLG1_3, Q12959, sequence (Q12959 457-571): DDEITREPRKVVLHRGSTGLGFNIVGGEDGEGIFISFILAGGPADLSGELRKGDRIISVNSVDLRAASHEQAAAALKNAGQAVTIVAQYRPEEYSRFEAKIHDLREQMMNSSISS
# IL16_1, Q14005, sequence (Q14005 210-306): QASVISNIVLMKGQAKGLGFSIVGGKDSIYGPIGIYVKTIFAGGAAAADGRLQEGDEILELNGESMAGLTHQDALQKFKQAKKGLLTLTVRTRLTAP
binder,measurement,setting,value
"RLQRRRETQV [HPV18-E6_-2P, P06463]",pKd,"ARHGEF12, Q9NZN5-2; [1]",below the threshold
same,pKd,"DLG1_2, Q12959; [1]",below the threshold
same,pKd,"DLG1_3, Q12959; [1]",below the threshold
same,pKd,"DLG4_2, P78352; [1]",3.65
same,pKd,"DLG4_3, P78352; [1]",3.51
same,pKd,"GRASP, Q7Z6J2; [1]",below the threshold
same,pKd,"GRIP2_6, Q9C0E4; [1]",below the threshold
same,pKd,"IL16_1, Q14005; [1]",below the threshold
same,pKd,"IL16_4, Q14005; [1]",below the threshold
same,pKd,"Inadl_1, Q8NI35; [1]",below the threshold
same,pKd,"Inadl_3, Q8NI35; [1]",below the threshold
same,pKd,"LAP2, Q96RT1; [1]",below the threshold
same,pKd,"LDB3, O75112; [1]",below the threshold
same,pKd,"LIMK2, P53671; [1]",below the threshold
same,pKd,"LRRC7, Q96NW7; [1]",below the threshold
same,pKd,"MAST2, Q6P0Q8; [1]",below the threshold
same,pKd,"MPP6, Q9NZW5; [1]",3.57
same,pKd,"NHERF3_1, Q5T2W1; [1]",below the threshold
same,pKd,"NHERF3_3, Q5T2W1; [1]",below the threshold
same,pKd,"NHERF4_4, Q86UT5; [1]",below the threshold
same,pKd,"PARD3B_1, Q8TEW8; [1]",below the threshold
same,pKd,"PARD3_3, Q8TEW0; [1]",below the threshold
same,pKd,"PICK1, Q9NRD5; [1]",below the threshold
same,pKd,"PTPN3, P26045; [1]",below the threshold
same,pKd,"SCRIB_1, Q14160; [1]",below the threshold
same,pKd,"SCRIB_3, Q14160; [1]",below the threshold
same,pKd,"SNTG1, Q9NSN8; [1]",below the threshold
same,pKd,"SNTG2, Q9NY99; [1]",below the threshold
same,pKd,"TIAM2, Q8IVF5; [1]",below the threshold
same,pKd,"TJP1_3, Q07157; [1]",below the threshold
"GQEEQVTTRL [TRPC5, Q9UL62]",pKd,"ARHGEF12, Q9NZN5-2; [2]",4.9
same,pKd,"DLG1_2, Q12959; [2]",below the threshold
same,pKd,"DLG1_3, Q12959; [2]",below the threshold
same,pKd,"DLG4_2, P78352; [2]",below the threshold
same,pKd,"DLG4_3, P78352; [2]",below the threshold
same,pKd,"GRASP, Q7Z6J2; [2]",4.63
same,pKd,"GRIP2_6, Q9C0E4; [2]",below the threshold
same,pKd,"IL16_1, Q14005; [2]",below the threshold
same,pKd,"IL16_4, Q14005; [2]",below the threshold
same,pKd,"Inadl_1, Q8NI35; [2]",below the threshold
same,pKd,"Inadl_3, Q8NI35; [2]",below the threshold
same,pKd,"LAP2, Q96RT1; [2]",below the threshold
same,pKd,"LDB3, O75112; [2]",below the threshold
same,pKd,"LIMK2, P53671; [2]",below the threshold
same,pKd,"LRRC7, Q96NW7; [2]",below the threshold
same,pKd,"MAST2, Q6P0Q8; [2]",5.62
same,pKd,"MPP6, Q9NZW5; [2]",below the threshold
same,pKd,"NHERF3_1, Q5T2W1; [2]",5.17
same,pKd,"NHERF3_3, Q5T2W1; [2]",4.65
same,pKd,"NHERF4_4, Q86UT5; [2]",below the threshold
same,pKd,"PARD3B_1, Q8TEW8; [2]",4.5
same,pKd,"PARD3_3, Q8TEW0; [2]",3.5
same,pKd,"PICK1, Q9NRD5; [2]",4.06
same,pKd,"PTPN3, P26045; [2]",4.54
same,pKd,"SCRIB_1, Q14160; [2]",3.79
same,pKd,"SCRIB_3, Q14160; [2]",4.22
same,pKd,"SNTG1, Q9NSN8; [2]",below the threshold
same,pKd,"SNTG2, Q9NY99; [2]",4.44
same,pKd,"TIAM2, Q8IVF5; [2]",3.65
same,pKd,"TJP1_3, Q07157; [2]",below the threshold
"SSALYGESDL [ACTN2, P35609]",pKd,"ARHGEF12, Q9NZN5-2; [2]",4.06
same,pKd,"DLG1_2, Q12959; [2]",below the threshold
same,pKd,"DLG1_3, Q12959; [2]",3.75
same,pKd,"DLG4_2, P78352; [2]",3.61
same,pKd,"DLG4_3, P78352; [2]",below the threshold
same,pKd,"GRASP, Q7Z6J2; [2]",3.93
same,pKd,"GRIP2_6, Q9C0E4; [2]",below the threshold
same,pKd,"IL16_1, Q14005; [2]",below the threshold
same,pKd,"IL16_4, Q14005; [2]",below the threshold
same,pKd,"Inadl_1, Q8NI35; [2]",below the threshold
same,pKd,"Inadl_3, Q8NI35; [2]",below the threshold
same,pKd,"LAP2, Q96RT1; [2]",3.96
same,pKd,"LDB3, O75112; [2]",4.4
same,pKd,"LIMK2, P53671; [2]",below the threshold
same,pKd,"LRRC7, Q96NW7; [2]",3.86
same,pKd,"MAST2, Q6P0Q8; [2]",5.52
same,pKd,"MPP6, Q9NZW5; [2]",below the threshold
same,pKd,"NHERF3_1, Q5T2W1; [2]",3.57
same,pKd,"NHERF3_3, Q5T2W1; [2]",below the threshold
same,pKd,"NHERF4_4, Q86UT5; [2]",below the threshold
same,pKd,"PARD3B_1, Q8TEW8; [2]",below the threshold
same,pKd,"PARD3_3, Q8TEW0; [2]",below the threshold
same,pKd,"PICK1, Q9NRD5; [2]",below the threshold
same,pKd,"PTPN3, P26045; [2]",4.45
same,pKd,"SCRIB_1, Q14160; [2]",4.23
same,pKd,"SCRIB_3, Q14160; [2]",5.1
same,pKd,"SNTG1, Q9NSN8; [2]",4.12
same,pKd,"SNTG2, Q9NY99; [2]",below the threshold
same,pKd,"TIAM2, Q8IVF5; [2]",4.18
same,pKd,"TJP1_3, Q07157; [2]",below the threshold
